Geometric Mean : PE-A data for one substance are collected here from US20200399344A1.

Experiment [1] concerns the target m2B4 expressed on CHO-K1/m2B4 cells (mouse) (UniProt Q07763). In words: flow cytometry, isotype control stain of Cho-K1-NFkB-Luc-m2B4 clone C2; unstained cells 2.00. On the technique in general: In flow cytometry, cells or beads pass a laser one at a time.
Experiment [2] concerns the target hCD28 expressed on CHO-K1/hCD28 cells (human) (UniProt P10747). In words: flow cytometry, isotype control stain of CHO-K1/hCD28 cells (table row 1); unstained cells 130.
Experiment [3] has as its target mCD28 expressed on CHO-K1/mCD28 cells (mouse) (UniProt P31041). In words: flow cytometry, isotype control stain (sample Chok1-IsotypeCD28); unstained cells 286.
Experiment [4] concerns the target hCD2 expressed on CHO-K1/hCD2 cells (human) (UniProt P06729). As to the kind of experiment: flow cytometry, isotype control stain of Cho-K1-Luc hCD2 clone 4; unstained cells 362.

Chain of m2B4 expressed on CHO-K1/m2B4 cells (mouse) (Q07763 20-397): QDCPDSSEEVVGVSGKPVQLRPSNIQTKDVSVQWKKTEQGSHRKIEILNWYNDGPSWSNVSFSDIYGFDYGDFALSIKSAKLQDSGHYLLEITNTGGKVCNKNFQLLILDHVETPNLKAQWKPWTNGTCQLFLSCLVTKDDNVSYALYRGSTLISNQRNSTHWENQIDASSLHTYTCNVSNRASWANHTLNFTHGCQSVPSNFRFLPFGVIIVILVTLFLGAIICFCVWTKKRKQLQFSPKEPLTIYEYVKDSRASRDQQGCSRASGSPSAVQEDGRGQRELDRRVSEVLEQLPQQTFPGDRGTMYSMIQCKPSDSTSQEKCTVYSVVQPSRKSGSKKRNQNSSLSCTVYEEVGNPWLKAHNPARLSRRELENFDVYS
Chain of mCD28 expressed on CHO-K1/mCD28 cells (mouse) (P31041 20-218): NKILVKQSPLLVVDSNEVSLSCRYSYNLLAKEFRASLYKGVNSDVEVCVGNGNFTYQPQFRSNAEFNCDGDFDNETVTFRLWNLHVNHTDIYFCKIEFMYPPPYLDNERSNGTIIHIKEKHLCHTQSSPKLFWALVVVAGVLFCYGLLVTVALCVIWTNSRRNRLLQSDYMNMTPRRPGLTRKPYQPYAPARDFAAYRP
Chain of hCD2 expressed on CHO-K1/hCD2 cells (human) (P06729 25-351): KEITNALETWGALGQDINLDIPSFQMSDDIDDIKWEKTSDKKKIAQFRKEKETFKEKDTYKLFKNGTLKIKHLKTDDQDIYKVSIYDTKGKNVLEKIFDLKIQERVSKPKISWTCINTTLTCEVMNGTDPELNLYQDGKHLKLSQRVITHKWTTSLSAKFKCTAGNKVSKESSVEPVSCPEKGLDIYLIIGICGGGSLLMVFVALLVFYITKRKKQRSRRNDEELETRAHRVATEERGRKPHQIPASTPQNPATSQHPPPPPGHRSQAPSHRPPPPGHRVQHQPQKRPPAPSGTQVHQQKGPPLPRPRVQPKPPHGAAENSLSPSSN
Chain of hCD28 expressed on CHO-K1/hCD28 cells (human) (P10747 19-220): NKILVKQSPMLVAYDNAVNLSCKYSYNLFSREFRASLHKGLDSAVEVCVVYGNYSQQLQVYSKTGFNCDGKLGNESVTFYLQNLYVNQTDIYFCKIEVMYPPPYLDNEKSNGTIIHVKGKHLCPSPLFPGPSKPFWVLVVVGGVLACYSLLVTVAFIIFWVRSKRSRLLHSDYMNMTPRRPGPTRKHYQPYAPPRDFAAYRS

Turning to isotype control antibody, the Geometric Mean : PE-A in experiment [1] was 178; in experiment [2] it was 589; in experiment [3] it was 678; in experiment [4], 1760.
